One block for each molecule: values may come before it.
What was measured:
[1] = target: calpain-3 (C129A) ΔNS&IS1 (human) (UniProt P20807); test: SEC-MALS
[2] = target: the molecule itself; test: SEC-MALS
[3] = target: the molecule itself; test: SEC-SAXS
[4] = target: the molecule itself; test: native gel or EMSA

stoichiometry N (titin per calpain-3) [1]: 2
Molecule: titin N2A region I81-I83 fragment (without His-tag) (domain or fragment)

B1: calpain-3 (C129A) ΔNS&IS1 (enzyme, human, UniProt P20807-1 1-821, looked up)
chain: MISRNFPIIGVKEKTFEQLHKKCLEKKVLYVDPEFPPDETSLFYSQKFPIQFVWKRPPEICENPRFIIDGANRTDICQGELGDAWFLAAIACLTLNQHLLFRVIPHDQSFIENYAGIFHFQFWRYGEWVDVVIDDCLPTYNNQLVFTKSNHRNEFWSALLEKAYAKLHGSYEALKGGNTTEAMEDFTGGVAEFFEIRDAPSDMYKIMKKAIERGSLMGCSIDTIIPVQYETRMACGLVRGHAYSVTGLDEVPFKGEKVKLVRLRNPWGQVEWNGSWSDRWKDWSFVDKDEKARLQHQVTEDGEFWMSYEDFIYHFTKLEICNLTADALQSDKLQTWTVSVNEGRWVRGCSAGGCRNFPDTFWTNPQYRLKLLEEDDDPDDSEVICSFLVALMQKNRRKDRKLGASLFTIGFAIYEVPKEMHGNKQHLQKDFFLYNASKARSKTYINMREVSQRFRLPPSEYVIVPSTYEPHQEGEFILRVFSEKRNLSEEVENTISVDRPVKKKKTKPIIFVSDRANSNKELGVDQESEEGKGKTSPDKQKQSPQPQPGSSDQESEEQQQFRNIFKQIAGDDMEICADELKKVLNTVVNKHKDLKTHGFTLESCRSMIALMDTDGSGKLNLQEFHHLWNKIKAWQKIFKHYDTDQSGTINSYEMRNAVNDAGFHLNNQLYDIITMRYADKHMNIDFDSFICCFVRLEGMFRAFHAFDKDGDGIIKLNVLEWLQLTMYA
stoichiometry N [2]: 5
stoichiometry N [3]: 6
stoichiometry N [4]: 2

From article PMC10925265 (bioRxiv, 2024)
